B1: Bap31 coiled-coil 2 (Bap31_CC2, residues 168−246) (domain or fragment, human, UniProt P51572 168-246, looked up)
chain: LDVGNAEVKLEEENRSLKADLQKLKDELASTKQKLEKAENQVLAMRKQSEGLTKEYDRLLEEHAKLQAAVDGPMDKKEE
notes: B-cell receptor-associated protein 31 (Bap31), human, coiled-coil 2, residues 168-246; source: E. coli Rosetta2(DE3), purified (Ni-NTA, SEC)
B2: Bap31 coiled-coil 2 (Bap31_CC2, residues 168−246) WT (domain or fragment, human, UniProt P51572 168-246, looked up)
chain: B1 chain
notes: B-cell receptor-associated protein 31 (Bap31), human, coiled-coil 2, residues 168-246; also called Bap31_CC2 WT; Bap31_WT; source: E. coli Rosetta2(DE3), purified (Ni-NTA, SEC)
B3: Bap31_vDED (residues 168−233 + SAAA) (domain or fragment, human)
chain: LDVGNAEVKLEEENRSLKADLQKLKDELASTKQKLEKAENQVLAMRKQSEGLTKEYDRLLEEHAKLSAAA
notes: B-cell receptor-associated protein 31 (Bap31), human, variant of the death effector domain, residues 168-233; also called Bap31_vDED+SAAA; Bap31_168-233+SAAA; source: E. coli Rosetta2(DE3), purified (Ni-NTA, SEC)

Assays:
[1] = target: the molecule itself; test: AUC; sedimentation velocity, 42,000 rpm, 20 °C, 20 mM Tris-HCl pH 7.5, 150 mM NaCl, 0.5 mM TCEP; c(s) distribution (SEDFIT); oligomeric state of the protein alone
[2] = target: T1, cytosolic domain of human Fis1 (Fis1_ΔTM, residues 1−123) (human, UniProt Q9Y3D6 1-123); test: SPR; Fis1_ΔTM WT or mutants immobilised by amine coupling; Bap31 constructs flowed at 30 μl/min; 25 °C; 20 mM HEPES pH 7.5, 100 mM NaCl, 0.005% Tween 20; BSA reference subtracted; equilibrium analysis; conditions: both partners purified
T1 construct: mitochondrial fission protein 1 (Fis1), human, cytosolic domain with the C-terminal TM region truncated, residues 1-123; pQlinkH vector: N-terminal polyhistidine tag followed by a TEV site; also called Fis1_ΔTM WT; Fis1_WT; source: E. coli Rosetta2(DE3), purified (Ni-NTA, SEC)
T1 sequence (Q9Y3D6 1-123, stated change not applied): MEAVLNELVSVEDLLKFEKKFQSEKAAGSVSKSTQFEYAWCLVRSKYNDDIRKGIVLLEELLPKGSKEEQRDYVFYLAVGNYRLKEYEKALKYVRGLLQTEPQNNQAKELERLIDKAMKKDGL

| Binder | stoichiometry N [1] | Kd [2] [µM] |
| --- | --- | --- |
| B1 | ~2 |  |
| B2 |  | 58 |
| B3 | ~2 |  |

From publication PMC12328794 (Communications Biology, 2025)
